83 variants from the RNAGym collection of RNA variant scans (doi:10.1021/acssynbio.7b00057) can be followed below.

B1: Pistol ribozyme (parent)
chain: GGGUCGUUGUUCCAUAAUCGCGUGGAUAUGGCACGCAAGUUUCUACCGGGCACCGUAAAUGUCCGACUGGAGCCGUUCGGGCGGCUAUAAACAGACCUCAGGCCCGAAGCGUGGCGGCACCUGCCGCCGGUGGUAAAAAAGAUCGGAAGAGCACACGUCU

Variants of B1 are the subject of this series. The series is described as follows: aptazyme ON/OFF ratio, guanine; higher = stronger switching; co-transcriptional cleavage with and without guanine.
Regarding U7C U8A G9U U10C U11G C12G, the “aptazyme ON/OFF ratio” value was determined as 1.11.

Take U7G U8A G9A U10G U11G C12A: the “aptazyme ON/OFF ratio” value was 1.14.

For U8G G9U U11A C12G C13U, the “aptazyme ON/OFF ratio” value is 1.18.

Turning to U7A U8C U10A U11G C12U C13A, the “aptazyme ON/OFF ratio” value came to 1.28.

On to U7G U8A G9C U10G U11A C13U, for which the “aptazyme ON/OFF ratio” value worked out at 1.03.

Turning to U7C U8C G9U U10G C12A, the “aptazyme ON/OFF ratio” value is 1.22.

With U8C G9U U10C C12G C13A, the “aptazyme ON/OFF ratio” value is 1.12.

As for U7C U10G U11G C12A C13A, the “aptazyme ON/OFF ratio” value stood at 1.13.

On to U7A U8A U11A C12G, for which the “aptazyme ON/OFF ratio” value worked out at 1.2.

As to U7G U8G U10A C12U C13U, the “aptazyme ON/OFF ratio” value amounted to 1.09.

On to U7A G9A U10C C12G C13G, for which the “aptazyme ON/OFF ratio” value worked out at 1.17.

Consider U7G U8A U10C U11C C12G, for which the “aptazyme ON/OFF ratio” value is 1.29.

As to U7C U8G G9A U10C U11C, the “aptazyme ON/OFF ratio” value was determined as 1.03.

On to U7A U8A U11C C13G, for which the “aptazyme ON/OFF ratio” value was 1.09.

On to U7G U8A U10A U11G C12U C13A, for which the “aptazyme ON/OFF ratio” value amounted to 1.38.

For U7G U8C G9C U10C U11A C12A C13U, the “aptazyme ON/OFF ratio” value stood at 1.04.

Consider U7C U8G U11C C12G C13U, for which the “aptazyme ON/OFF ratio” value was determined as 1.17.

On to U8C G9A U10C C12A C13U, for which the “aptazyme ON/OFF ratio” value stood at 1.33.

On to U7C G9C C12U C13A, for which the “aptazyme ON/OFF ratio” value was found to be 1.01.

On to U7C U8A U10A U11C C12U C13A, for which the “aptazyme ON/OFF ratio” value turned out to be 1.08.

Take U7C U8C U11A: the “aptazyme ON/OFF ratio” value was 1.66.

In the case of U8C U10G U11A C12G C13G, the “aptazyme ON/OFF ratio” value was found to be 1.15.

Take U7A U8A G9A U11C C12U: the “aptazyme ON/OFF ratio” value was 1.06.

Regarding U7C U8G G9C U10A U11C C12A C13U, the “aptazyme ON/OFF ratio” value came out at 1.17.

Regarding U7G U8G G9C U11C C13U, the “aptazyme ON/OFF ratio” value was 1.33.

On to U7G U8G G9C U10G C12G C13U, for which the “aptazyme ON/OFF ratio” value amounted to 1.2.

For U8G G9U U10A U11G C12A C13G, the “aptazyme ON/OFF ratio” value came out at 1.06.

As for U7G G9U U11G C13A, the “aptazyme ON/OFF ratio” value came to 1.3.

As for U7A U8C G9C U10C C12A C13A, the “aptazyme ON/OFF ratio” value was 1.03.

As for U8C U10A U11C C12G C13G, the “aptazyme ON/OFF ratio” value turned out to be 1.38.

In the case of U7C U8G G9A U10C U11G C13U, the “aptazyme ON/OFF ratio” value stood at 1.41.

Consider U7G U8C G9U U10G C12U C13U, for which the “aptazyme ON/OFF ratio” value turned out to be 1.34.

As for U7C U8C G9A U10G U11C C12G C13A, the “aptazyme ON/OFF ratio” value was 1.17.

With U8G G9C U11C C12G C13G, the “aptazyme ON/OFF ratio” value came out at 1.05.

For the variant U7C U8C G9U U10C U11A C12U, the “aptazyme ON/OFF ratio” value is 1.26.

Take U7C U8G G9C U10G U11A C12U C13U: the “aptazyme ON/OFF ratio” value came to 1.27.

With U7A U8G G9C U10A C12G C13G, the “aptazyme ON/OFF ratio” value stood at 1.28.

Regarding U8C G9U U10C C12G, the “aptazyme ON/OFF ratio” value is 1.26.

As for U8G G9A U11C C12G C13A, the “aptazyme ON/OFF ratio” value was 1.17.

On to U7A G9C U11C C12A C13G, for which the “aptazyme ON/OFF ratio” value was 1.05.

Take U7C U8C U10A U11A C12U: the “aptazyme ON/OFF ratio” value worked out at 1.16.

For the variant U7A U8C G9A U11G C12G C13G, the “aptazyme ON/OFF ratio” value came out at 1.31.

With U7A U8C G9U U11G C12U C13A, the “aptazyme ON/OFF ratio” value was 1.22.

U7C U8C G9A U11C C13A: the “aptazyme ON/OFF ratio” value was found to be 1.22.

U7G U8G G9C U10A U11A C12A: the “aptazyme ON/OFF ratio” value turned out to be 1.07.

U7A G9C U10A C12G C13G: the “aptazyme ON/OFF ratio” value is 1.14.

As for U7A U8G G9C U10C U11C C12A, the “aptazyme ON/OFF ratio” value was 1.06.

On to U7G U8G G9C U10A U11G C13G, for which the “aptazyme ON/OFF ratio” value stood at 1.03.

As for U7C U8A G9C U10C C12A C13U, the “aptazyme ON/OFF ratio” value was found to be 1.06.

As to U7G U8A G9A U10G U11C C12G C13G, the “aptazyme ON/OFF ratio” value came to 1.04.

Regarding U8C G9A C12U, the “aptazyme ON/OFF ratio” value worked out at 1.38.

For U7A U8G G9A U10C U11G C12U C13A, the “aptazyme ON/OFF ratio” value was 1.21.

For the variant U7G U10A U11C C12U C13A, the “aptazyme ON/OFF ratio” value is 1.12.

As to U8C G9U U10C U11A C12A, the “aptazyme ON/OFF ratio” value turned out to be 1.15.

U8G G9C U10G U11C C12G C13A: the “aptazyme ON/OFF ratio” value came to 1.08.

Consider U7A U8C G9U U10A U11G C13U, for which the “aptazyme ON/OFF ratio” value was found to be 1.23.

For U8C U10G U11C C12A, the “aptazyme ON/OFF ratio” value is 2.79.

Regarding U7G G9C U10C U11C C13A, the “aptazyme ON/OFF ratio” value came to 1.05.

U7A U8A U11A C12G C13U: the “aptazyme ON/OFF ratio” value was 1.16.

As for U7A U8A G9C U10C U11C C12U C13U, the “aptazyme ON/OFF ratio” value is 1.05.

For U7G U8C G9C U10G U11G C12A C13G, the “aptazyme ON/OFF ratio” value is 1.13.

U7A U8C U10A U11C C12G C13A: the “aptazyme ON/OFF ratio” value worked out at 1.08.

On to U8A U10A C12G C13U, for which the “aptazyme ON/OFF ratio” value was 1.37.

As to U8A U10A C12G C13G, the “aptazyme ON/OFF ratio” value was determined as 1.19.

Consider U8A G9A U11A C12G C13G, for which the “aptazyme ON/OFF ratio” value stood at 1.2.

Take U8A G9U U10G C12G C13G: the “aptazyme ON/OFF ratio” value turned out to be 1.15.

On to U7G U11A C12U C13G, for which the “aptazyme ON/OFF ratio” value worked out at 1.14.

For U7C U8G U10G U11A C12A C13U, the “aptazyme ON/OFF ratio” value was 1.2.

Take U7G G9C U10C C12G C13G: the “aptazyme ON/OFF ratio” value came out at 1.09.

For the variant U8G G9C U10C C12G C13A, the “aptazyme ON/OFF ratio” value is 1.16.

Turning to U8A G9A U10G U11C C12U C13U, the “aptazyme ON/OFF ratio” value came out at 1.15.

Regarding U8A G9C U10C U11A C12U C13A, the “aptazyme ON/OFF ratio” value was determined as 1.07.

In the case of U7C U8A G9U U10A U11A C13A, the “aptazyme ON/OFF ratio” value came out at 1.13.

For U7C U8A G9U U10G U11G C13G, the “aptazyme ON/OFF ratio” value amounted to 1.04.

U7C U8C U10C C12U C13A: the “aptazyme ON/OFF ratio” value worked out at 1.35.

Regarding U7C U8C U10C C12U C13U, the “aptazyme ON/OFF ratio” value turned out to be 1.45.

On to U7C U8A G9C U10A U11G C12A C13U, for which the “aptazyme ON/OFF ratio” value was found to be 1.14.

As to U8A G9A U10G U11A C13A, the “aptazyme ON/OFF ratio” value was found to be 1.03.

With U7G U8A G9A U10G U11A C13U, the “aptazyme ON/OFF ratio” value came to 1.03.

U7A U8G G9A U11A: the “aptazyme ON/OFF ratio” value came to 1.7.

Regarding U7C U8G G9A U11A, the “aptazyme ON/OFF ratio” value is 1.18.

As to U7C U8G G9A U10G U11C C12A C13U, the “aptazyme ON/OFF ratio” value amounted to 1.25.

For the variant U7A U8G U10C U11G C12A C13A, the “aptazyme ON/OFF ratio” value amounted to 1.42.
